How the values were obtained:
[1] = test system: differentiated 3T3 L1 adipocytes; assay: CRE-luciferase reporter assay in differentiated 3T3 L1 adipocytes; type: cell-based, murine
Text: Differentiated murine 3T3 L1 adipocytes and primary human adipocytes were used to study signal transduction of CGH. 3T3 L1 fibroblasts were differentiated into adipocytes and the cells were transduced with recombinant adenovirus containing a reporter construct, a firefly luciferase gene under the control of cAMP response element (CRE) enhancer sequences. This assay system detects cAMP-mediated gene induction downstream of activation of Gs-coupled G-protein coupled receptors (GPCR's). […] In a separate experiment, undifferentiated 3T3 L1 fibroblasts were transduced with the recombinant adenovirus. […] In another experiment, human primary adipocytes were also transduced with the recombinant adenovirus containing a reporter construct. Treatment of the human adipocytes with isoproterenol produced a 17-fold induction of luciferase expression.
Cells were cultured at 37° C. in an 8% CO2 humidified incubator. Cells were seeded to collagen-coated 96-well plates (Becton Dickinson, cat. #356407) at a density of 5,000 cells per well. […] Luciferase activity was measured on a microplate luminometer (PerkinElmer Life Sciences, Inc., model LB 96V2R) following automated injection of 40 μl of luciferase assay substrate into each well. […]

thymus = test system: thymus; parameters: species or system mice; details: mouse, in vivo
Text: Since the receptor for CGH, TSH-R, is expressed by the adrenal glands, there was concern that the anti-inflammatory effects observed might be an indirect effect of increasing endogenous corticosteroid production in CGH-treated mice. One well-established side effect of increasing either exogenous or endogenous corticosteroid levels is substantial atrophy of the thymus, as the developing T cells are induced to undergo apoptosis. Therefore, the thymuses of the CGH and Dex-treated mice in the DTH experiments were analyzed. […] Thus, CGH seems to be mediating its anti-inflammatory effects in a manner distinct from that of exgenous glucocorticoids like Dex.

TSHR = assay: Binding of 125I-CGH and 125I-TSH to BHK cells expressing the TSHR; parameters: species or system murine or human; details: increasing amounts of unlabeled protein
Protocol: BHK cells expressing murine or human TSHRs were cultured in Dulbecco's Modified Eagle's Medium [DMEM (high glucose)] containing 5% fetal bovine serum, 1% Glutamax, 1% sodium pyruvate, 250 nM methotrexate, and Geneticin ( 1/100). […] Plates of cells were placed on ice and washed twice with 1.0-2.0 ml of ice-cold PBS. […] Specific binding was determined in the presence (nonspecific binding) and absence (total binding) of unlabeled rhCGH (25.0 μg/ml) or TSH (10 μg/ml). Binding reactions were terminated by removing the binding medium and the cell monolayers were washed three times with 1.0-2.0 ml of ice-cold PBS containing 1.0 mg/ml BSA and twice with 1.0-2.0 ml of ice cold albumin-free PBS. Cells were solubilized in 1.0 ml of 1.0N NaOH for 10 min at room temperature and cell-associated radioactivity was determined in a gamma counter. The measured radioactivity was normalized to cell number that was determined on plates of cells cultured in parallel. Binding data were analyzed by non-linear regression using Prizm 3.0 (GraphPad Software, San Diego, Calif.).

[2] = test system: neutrophil infiltration in the ears; assay: Neutrophil (Gr-1) histomorphometry of ears in DTH experiment #1; type: in vivo, mice
Protocol: Ears from mice in DTH experiment #1 were analyzed by immunohistochemistry to assess which cell types were most affected by CGH treatment. Ears were fixed in Zinc/Tris buffer (2.3 mM calcium acetate/31.6 mM zinc acetate/36.7 mM zinc chloride in 0.1M Tris-HCL buffer, pH 7.4) for 24 hours at room temperature and stained with antibodies specific for CD4, CD8, CD11c, and Gr-1 (neutrophils). […] Ears were stained using a TechMate 500 autoimmunostainer (Biotech/Ventana) MIP protocol with some modifications. […] This step was followed, after a wash, by biotinylated rabbit anti-rat IgG secondary antibody (Dako, used at 10 ug/ml in PBS with 2% normal rabbit serum and 2% nonfat dry milk) for 45 min. The sections were then washed and treated with HP Block (1.5% H2O2 in 50% methanol) 3 times, 7 min each, followed by 25 min in avidin-biotin complex, 3 times of 4 min each in DAB (Diaminobenzidine), then with Methyl green for 10 min.
From this staining procedure, there was a clear reduction in the number of neutrophils infiltrating the ears of those mice treated with CGH or Dex, compared to the PBS-treated controls. Histomorphometry was performed to obtain the average pixel density of neutrophils per unit length (1 mm) present in the ear samples. Despite a fair amount of variability among each group, there was a significant reduction in neutrophil staining in the Dex and low dose CGH groups, as well as a nearly significant (p=0.0507) reduction in the high dose CGH group (see TABLE 5, p values).

[3] = 0.2 mg/kg CGH i.p. at challenge (day 7)
[4] = 2 mg/kg CGH i.p. at challenge (day 7)

B1: CGH: heterodimeric protein hormone comprised of alpha subunit GPHA2 and beta subunit GPHB5, recombinantly produced in CHO cells (protein)
chain 1: QEAVIPGCHLHPFNVTVRSDRQGTCQGSHVAQACVGHCESSAFPSRYSVLVASGYRHNITSVSQCCTISGLKKVKVQLQCVGSRREELEIFTARACQCDMCRLSRY
chain 2: ASSGNLRTFVGCAVREFTFLAKKPGCRGLRITTDACWGRCETWEKPILEPPYIEAHHRVCTYNETKQVTVKLPNCAPGVDPFYTYPVAIRCDCGACSTATTECETI
induction of luciferase expression [1]: 27 fold
relative proportion of each thymocyte subset vs PBS-treated group (thymus): not significantly different
reduction of the amount of 125I-CGH bound by unlabeled competitor (TSHR): reduced the amount of ^125I-CGH bound
Pixel density: Neutrophils, left ear (PBS) [2, 3]: 544 +/− 1044
Pixel density: Neutrophils, right ear (OVA) [2, 3]: 5605 +/− 3725
Pixel density: Neutrophils, left ear (PBS) [2, 4]: 273 +/− 399
Pixel density: Neutrophils, right ear (OVA) [2, 4]: 5535 +/− 5331
